Reference: US20150125463A1

What was measured:
[1] = target: human PD-L1 (on cells or in tissue) (human) (UniProt Q9NZQ7); assay: IHC histoscore (0-300), FFPE tumor Mel sample 1168657B; 5H1 at 5 ug/ml
[2] = target: human PD-L1 (on cells or in tissue) (human) (UniProt Q9NZQ7); assay: IHC histoscore (0-300), FFPE tumor NSCLC sample 1080790; 5H1 at 5 ug/ml
[3] = target: human PD-L1 (on cells or in tissue) (human) (UniProt Q9NZQ7); assay: IHC histoscore (0-300), FFPE tumor Mel sample T980744; 5H1 at 5 ug/ml
[4] = target: human PD-L1 (on cells or in tissue) (human) (UniProt Q9NZQ7); assay: IHC histoscore (0-300), FFPE tumor Mel sample T030668; 5H1 at 5 ug/ml
[5] = target: human PD-L1 (on cells or in tissue) (human) (UniProt Q9NZQ7); assay: IHC histoscore (0-300), FFPE tumor RCC sample 1164619B; 5H1 at 5 ug/ml
[6] = target: human PD-L1 (on cells or in tissue) (human) (UniProt Q9NZQ7); assay: IHC histoscore (0-300), FFPE tumor NSCLC sample 1080754B; 5H1 at 5 ug/ml
[7] = target: human PD-L1 (on cells or in tissue) (human) (UniProt Q9NZQ7); assay: IHC histoscore (0-300), FFPE tumor NSCLC sample 1080993B; 5H1 at 5 ug/ml
[8] = target: human PD-L1 (on cells or in tissue) (human) (UniProt Q9NZQ7); assay: IHC histoscore (0-300), FFPE tumor RCC sample 1167809B; 5H1 at 5 ug/ml
[9] = target: human PD-L1 (on cells or in tissue) (human) (UniProt Q9NZQ7); assay: IHC histoscore (0-300), FFPE tumor NSCLC sample 1080766B; 5H1 at 5 ug/ml
[10] = target: human PD-L1 (on cells or in tissue) (human) (UniProt Q9NZQ7); assay: IHC histoscore (0-300), FFPE tumor RCC sample 1167809B; 28-8 at 2 ug/ml
[11] = target: human PD-L1 (on cells or in tissue) (human) (UniProt Q9NZQ7); assay: IHC histoscore (0-300), FFPE tumor NSCLC sample 1080993B; 28-8 at 2 ug/ml
[12] = target: human PD-L1 (antigen of the surface plasmon resonance analysis) (human) (UniProt Q9NZQ7); assay: surface plasmon resonance; KD given for clone 28-8 alone
Chain of human PD-L1 (antigen of the surface plasmon resonance analysis) (human) (Q9NZQ7 19-238 limits assumed): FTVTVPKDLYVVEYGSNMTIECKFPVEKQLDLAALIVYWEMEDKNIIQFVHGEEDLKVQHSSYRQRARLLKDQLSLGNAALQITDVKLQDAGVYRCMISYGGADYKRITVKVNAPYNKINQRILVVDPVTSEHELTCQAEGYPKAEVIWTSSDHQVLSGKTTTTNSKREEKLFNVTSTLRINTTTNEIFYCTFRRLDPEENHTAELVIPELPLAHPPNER

[13] = target: human PD-L1 (on cells or in tissue) (human) (UniProt Q9NZQ7); assay: IHC histoscore (0-300), FFPE tumor NSCLC sample 1080754B; 28-8 at 2 ug/ml
[14] = target: human PD-L1 (on cells or in tissue) (human) (UniProt Q9NZQ7); assay: IHC histoscore (0-300), FFPE tumor Mel sample T980744; 28-8 at 2 ug/ml
[15] = target: human PD-L1 (on cells or in tissue) (human) (UniProt Q9NZQ7); assay: IHC histoscore (0-300), FFPE tumor Mel sample 1168657B; 28-8 at 2 ug/ml
[16] = target: human PD-L1 (on cells or in tissue) (human) (UniProt Q9NZQ7); assay: IHC histoscore (0-300), FFPE tumor NSCLC sample 1080766B; 28-8 at 2 ug/ml
[17] = target: human PD-L1 (on cells or in tissue) (human) (UniProt Q9NZQ7); assay: IHC histoscore (0-300), FFPE tumor Mel sample T030668; 28-8 at 2 ug/ml
[18] = target: human PD-L1 (on cells or in tissue) (human) (UniProt Q9NZQ7); assay: IHC histoscore (0-300), FFPE tumor NSCLC sample 1080790; 28-8 at 2 ug/ml
[19] = target: human PD-L1 (on cells or in tissue) (human) (UniProt Q9NZQ7); assay: IHC histoscore (0-300), FFPE tumor Mel sample T980747; 28-8 at 2 ug/ml
[20] = target: human PD-L1 (on cells or in tissue) (human) (UniProt Q9NZQ7); assay: IHC histoscore (0-300), FFPE tumor RCC sample 1164619B; 28-8 at 2 ug/ml

Chain of human PD-L1 (on cells or in tissue) (human) (Q9NZQ7 19-290): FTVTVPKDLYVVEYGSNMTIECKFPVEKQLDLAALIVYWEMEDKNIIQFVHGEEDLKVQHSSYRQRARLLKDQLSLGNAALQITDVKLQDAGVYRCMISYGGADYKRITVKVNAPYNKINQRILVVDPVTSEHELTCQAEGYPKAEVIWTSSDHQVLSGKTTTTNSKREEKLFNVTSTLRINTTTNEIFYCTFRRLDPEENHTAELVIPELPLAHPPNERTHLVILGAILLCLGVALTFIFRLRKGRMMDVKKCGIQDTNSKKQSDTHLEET

Histoscore Average [1]	Histoscore Average [2]	Histoscore Average [3]	Histoscore Average [4]	Histoscore Average [5]	Histoscore Average [6]	Histoscore Average [7]	Histoscore Average [8]	Histoscore Average [9]	Histoscore Average [10]	Histoscore Average [11]	Kd [12] [pM]	Histoscore Average [13]	Histoscore Average [14]	Histoscore Average [15]	Histoscore Average [16]	Histoscore Average [17]	Histoscore Average [18]	Histoscore Average [19]	Histoscore Average [20]	Substance
0	40	98	98	4	245	12	108	103												murine anti-human PD-L1 mAb 5H1 (antibody)
									125	16	100	261	123	0	130	113	37	9	4	rabbit anti-human PD-L1 mAb 28-8 (antibody)
